Data taken from patent US20220204603A1 (PHARMABCINE, published 2022).

Experiments:
[1] = target: T1, mouse Ang2 (construct not stated) (mouse, UniProt O35608 19-496, limits assumed); experiment: SPR Biacore T200, antibody captured on protein A chip, Ang2 as analyte, 1:1 model
T1 construct: also called mAng2
T1 sequence (looked up): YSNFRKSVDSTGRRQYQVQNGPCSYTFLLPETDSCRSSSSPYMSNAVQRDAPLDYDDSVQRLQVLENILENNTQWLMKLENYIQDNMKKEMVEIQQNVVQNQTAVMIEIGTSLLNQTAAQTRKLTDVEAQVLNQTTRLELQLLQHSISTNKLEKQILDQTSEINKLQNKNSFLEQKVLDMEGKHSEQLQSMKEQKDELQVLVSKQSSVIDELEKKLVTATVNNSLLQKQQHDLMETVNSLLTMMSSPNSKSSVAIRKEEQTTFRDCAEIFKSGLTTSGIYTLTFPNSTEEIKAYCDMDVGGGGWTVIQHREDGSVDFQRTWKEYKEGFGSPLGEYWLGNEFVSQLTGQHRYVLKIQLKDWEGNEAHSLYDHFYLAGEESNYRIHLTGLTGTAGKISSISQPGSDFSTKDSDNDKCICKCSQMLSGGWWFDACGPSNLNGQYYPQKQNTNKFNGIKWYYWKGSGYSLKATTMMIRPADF
Description: To analyze the binding affinity of the selected anti-Ang2 antibodies, affinity analysis for human Ang2 and mouse Ang2 was performed using BIACORE® T200 (GE Healthcare). A protein A sensor chip was used, and an experiment was conducted in accordance with the manufacturer's manual. Detailed analysis conditions are as follows. 2000 response units (RU) of protein A were immobilized, 25 RU of anti-Ang2 antibody candidates were used for binding, and various concentrations of human Ang2 and mouse Ang2 were allowed to bind. The starting concentrations for analysis are 100 nM and 150 nM, respectively. The analysis proceeded at a flow rate of 30 μl/min, the binding and dissociation time of human Ang2 was measured as 300 seconds and 2000 seconds, respectively, and the binding and dissociation time of mouse Ang2 was analyzed as 300 seconds and 1000 seconds, respectively. Analysis was performed using a 1:1 binding model as an analytical model.

[2] = target: T1, mouse Ang2 (construct not stated); experiment: competition ELISA: antibody preincubated with mAng2, binding to coated mouse Tie2-Fc
[3] = target: hAng2-Fc (PharmAbcine) (human) (UniProt O15123); experiment: phage ELISA, antigen coated at 1 µg/ml, anti-M13-HRP
mAng1-Fc (PharmAbcine) = target: T2, mAng1-Fc (PharmAbcine) (mouse, UniProt O08538 20-498, limits assumed); experiment: as above
T2 construct: In-house (PharmAbcine) Fc fusion; not shown: Fc part
T2 sequence (looked up): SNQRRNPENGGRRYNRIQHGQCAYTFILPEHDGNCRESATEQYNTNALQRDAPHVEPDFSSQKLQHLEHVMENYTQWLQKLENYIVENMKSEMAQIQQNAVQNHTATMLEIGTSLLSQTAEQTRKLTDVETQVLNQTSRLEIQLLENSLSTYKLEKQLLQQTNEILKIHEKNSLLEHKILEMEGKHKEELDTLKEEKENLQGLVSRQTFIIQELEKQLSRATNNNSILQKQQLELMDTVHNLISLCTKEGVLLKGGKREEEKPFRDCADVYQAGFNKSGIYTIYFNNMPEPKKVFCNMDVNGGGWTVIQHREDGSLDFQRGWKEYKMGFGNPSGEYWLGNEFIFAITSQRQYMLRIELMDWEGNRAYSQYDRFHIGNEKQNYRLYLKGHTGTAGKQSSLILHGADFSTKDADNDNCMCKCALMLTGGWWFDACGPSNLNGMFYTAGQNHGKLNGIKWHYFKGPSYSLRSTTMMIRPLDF

[4] = target: human Ang2 (construct not stated) (human) (UniProt O15123); experiment: Octet (BLI), scFv immobilized on biosensor, human Ang2 in solution
[5] = target: T3, Ang2 immobilized on a biosensor (Octet off-rate screening) (Homo sapiens (Human), UniProt O15123 19-496); experiment: Octet (BLI), Ang2 immobilized on biosensor, scFv in solution
T3 construct: also called Ang2 antigen; not shown: It is a His tag if hAng2-his (R&D 623-AN/CF) was used, or an Fc if hAng2-Fc (PharmAbcine) was used
T3 sequence: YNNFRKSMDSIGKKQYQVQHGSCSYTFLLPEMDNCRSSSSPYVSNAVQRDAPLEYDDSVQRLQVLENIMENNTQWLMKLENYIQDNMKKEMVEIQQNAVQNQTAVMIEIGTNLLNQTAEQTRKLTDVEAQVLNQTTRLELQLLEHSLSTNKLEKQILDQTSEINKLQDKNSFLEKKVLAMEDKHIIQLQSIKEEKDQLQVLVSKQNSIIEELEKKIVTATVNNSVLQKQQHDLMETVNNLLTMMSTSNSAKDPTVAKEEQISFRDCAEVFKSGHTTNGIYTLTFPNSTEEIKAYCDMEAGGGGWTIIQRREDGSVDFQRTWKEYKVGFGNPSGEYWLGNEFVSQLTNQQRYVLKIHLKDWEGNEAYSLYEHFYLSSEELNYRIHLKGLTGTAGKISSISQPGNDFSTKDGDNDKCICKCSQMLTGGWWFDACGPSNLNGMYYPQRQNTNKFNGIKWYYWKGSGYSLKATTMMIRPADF

Q: With nesvacumab (antibody) as the molecule, how does the Kd [1] read?
A: 0.262 nM

Q: And the koff [1]?
A: 5.51e-05 s⁻¹

Q: And the kon [1]?
A: 210000 M⁻¹ s⁻¹

Q: And the IC50 [2]?
A: 10.4 nM

B1: No. 3 monoclonal scFv phage (scFv, V domains shown, not shown: large carriers)
VH: QMQLVQSGGGLVQPGRSLKLSCAASGFSFDDYAMHWVRQAPGKGLEWVATIKDDGSQTYYVDSVKGRFTISRDNAKSSLFLQMNSLRAEDTAVYYCTTEGLMNGLHFDMWGQGTMVTVSS
VL: LVLTQPPSVSGAPGQGVTISCTGSSSNIGAGYDVHWYQQFPGTAPKLLISGNNNRPSGLPDRFSGSKSGTSASLAITGLQAEDEADYYCQSYDSRLGVVFGGGTKLTVLG
modifications: scFv linker; phage coat protein fusion
Q: B1 was tested. Which OD [3] did it give?
A: 1.9 OD

B2: No. 4 monoclonal scFv phage (scFv)
chain: QVQLVESGAEVKRPGESLRISCKTSGYSFTSYWIHWVRQMPGKELEWMGSIYPGNSDTRYSPSFQGHVTISADSSSSTAYLQWSSLKASDTAMYYCTTEGLMNGLHFDMWGQGTMVTVSSDIVMTQTPLSLPVTPGEPASISCRSSQSLLHSLGDNYLDWYLQKPGQSPQLLIYLGSKRAAGVPDRFSGSGSGTDFTLKISRVEAEDVGVYYCMQSLQTPPYTFGQGTKLEIKR
Q: Which OD [3] does the source give for B2 here?
A: 0.835 OD

Q: What about the OD (mAng1-Fc (PharmAbcine)) of the same molecule?
A: 0.093 OD

B3: No. 8 monoclonal scFv phage (scFv)
chain: QVQLVESGGGLVKPGGSLRLSCAASGFTFSSYSMNWVRQAPGKGLEWVSSISASDGATYYADSVRGRFTISRDNSRSTLYLQMNSLRAEDTAVYYCAKILAGYSGPMGGMDVWGQGTTVTVSSDIQMTQSPSSLSASVGDRVTITCRASRDISNYLAWYQQKPGKAPKSLIYGASNLQSGVSSQFSGSGSGTDFTLTINSLQPEDSATYYCQQYYSYPLTFGGGTKVDIKR
Q: Which OD [3] does the source give for B3 here?
A: 1.36 OD

Q: What about the OD (mAng1-Fc (PharmAbcine)) of the same molecule?
A: 0.199 OD

B4: No. 41 monoclonal scFv phage (scFv, V domains shown, not shown: large carriers)
VH: QVQLVESGGGLVQPGGSLRLSCEASGFAFGRYEMNWVRQAPGKGLEWIAYIDTGGGAKVYADSVKGRFTISRDDSKNSLYLQMNSLRAEDTAVYYCTTEGLMNGLHFDMWGQGTMITVSS
VL: DIQMTQSPSTLSASVGDRVAITCRASQAISTWLAWYQQKPGKAPKLLIYTASTLESGVPSRFSGSGSGTDFTLTINSLQPDDFATYYCQQLNSYPYTFGGGTKVEIKR
modifications: scFv linker; phage coat protein fusion
Q: Which OD [3] does the source give for B4 here?
A: 0.825 OD

B5: No. 46 monoclonal scFv phage (scFv, V domains shown, not shown: large carriers)
VH: QVQLVESGGGLVQPGRSLRLSCAASGFTFDDCAMHWVRQAPGKGLEWVSGISGNSKNVAYADSVKGRFSISRDDAKNSLYLQMNSLRAEDTAVYYCARDPAYSQFDYWGQGTLITVSS
VL: QSALTQPPSLSATPGQRVTISCSGSSSNVGGYPVNWYQQVPGAAPKLLMYTDYKRPSGVPDRFFGSKSGTSASLAISGLQSEDEADYYCATWDDNLNGYVFGTGTKVTVLG
modifications: scFv linker; phage coat protein fusion
Q: Which OD [3] does the source give for B5 here?
A: 1.19 OD

B6: No. O4 scFv, optimized anti-Ang2 scFv antibody expressed in E. coli (pET-22b), refolded and purified (scFv, part only; not given: scFv linker and His tag, not shown: small tags and cut ends)
scFv, part: QVQLVESGGGLVKPGGSLRLSCAASGFTFSSYSMNWVRQAPGKGLEWVSSISASDGATYYADSVRGRFTISRDNSRSTLYLQMNSLRAEDTAVYYCAKTLAGYSGPMGGMDVWGQGTTVTVSSDIQMTQSPSSLSASVGDRVTITCRASRDISNYLAWYQQKPGKAPKSLIYGASNLQSGVSSQFSGSGSGTDFTLTINSLQPEDSATYYCQQYYSYPLTFGGGTKVDIKR
Q: Which Kd [4] does the source give for B6 here?
A: 0.28 nM

Q: And the koff [4]?
A: 2.54e-05 s⁻¹

Q: And the kon [4]?
A: 94000 M⁻¹ s⁻¹

B7: No. 46 monoclonal scFv phage (scFv)
chain: QVQLVESGGGLVQPGRSLRLSCAASGFTFDDCAMHWVRQAPGKGLEWVSGISGNSKNVAYADSVKGRFSISRDDAKNSLYLQMNSLRAEDTAVYYCARDPAYSQFDYWGQGTLITVSSQSALTQPPSLSATPGQRVTISCSGSSSNVGGYPVNWYQQVPGAAPKLLMYTDYKRPSGVPDRFFGSKSGTSASLAISGLQSEDEADYYCATWDDNLNGYVFGTGTKVTVLG
Q: How did the OD (mAng1-Fc (PharmAbcine)) turn out when B7 was run?
A: 0.061 OD

B8: No. 3 candidate antibody expressed in the form of scFv (scFv, V domains shown)
VH: QMQLVQSGGGLVQPGRSLKLSCAASGFSFDDYAMHWVRQAPGKGLEWVATIKDDGSQTYYVDSVKGRFTISRDNAKSSLFLQMNSLRAEDTAVYYCTTEGLMNGLHFDMWGQGTMVTVSS
VL: LVLTQPPSVSGAPGQGVTISCTGSSSNIGAGYDVHWYQQFPGTAPKLLISGNNNRPSGLPDRFSGSKSGTSASLAITGLQAEDEADYYCQSYDSRLGVVFGGGTKLTVLG
Q: B8 was tested. Which koff [5] did it give?
A: 0.000642 s⁻¹

B9: No. 4 candidate antibody expressed in the form of scFv (scFv, V domains shown)
VH: QVQLVESGAEVKRPGESLRISCKTSGYSFTSYWIHWVRQMPGKELEWMGSIYPGNSDTRYSPSFQGHVTISADSSSSTAYLQWSSLKASDTAMYYCTTEGLMNGLHFDMWGQGTMVTVSS
VL: DIVMTQTPLSLPVTPGEPASISCRSSQSLLHSLGDNYLDWYLQKPGQSPQLLIYLGSKRAAGVPDRFSGSGSGTDFTLKISRVEAEDVGVYYCMQSLQTPPYTFGQGTKLEIKR
Q: With B9 as the molecule, how does the koff [5] read?
A: 0.000212 s⁻¹

B10: No. 8 candidate antibody expressed in the form of scFv (scFv)
chain: QVQLVESGGGLVKPGGSLRLSCAASGFTFSSYSMNWVRQAPGKGLEWVSSISASDGATYYADSVRGRFTISRDNSRSTLYLQMNSLRAEDTAVYYCAKILAGYSGPMGGMDVWGQGTTVTVSSDIQMTQSPSSLSASVGDRVTITCRASRDISNYLAWYQQKPGKAPKSLIYGASNLQSGVSSQFSGSGSGTDFTLTINSLQPEDSATYYCQQYYSYPLTFGGGTKVDIKR
Q: B10 was tested. Which koff [5] did it give?
A: < 1e-07 s⁻¹

B11: No. 41 candidate antibody expressed in the form of scFv (scFv, V domains shown)
VH: QVQLVESGGGLVQPGGSLRLSCEASGFAFGRYEMNWVRQAPGKGLEWIAYIDTGGGAKVYADSVKGRFTISRDDSKNSLYLQMNSLRAEDTAVYYCTTEGLMNGLHFDMWGQGTMITVSS
VL: DIQMTQSPSTLSASVGDRVAITCRASQAISTWLAWYQQKPGKAPKLLIYTASTLESGVPSRFSGSGSGTDFTLTINSLQPDDFATYYCQQLNSYPYTFGGGTKVEIKR
Q: How did the koff [5] turn out when B11 was run?
A: 1.08e-05 s⁻¹

B12: No. 46 candidate antibody expressed in the form of scFv (scFv, V domains shown)
VH: QVQLVESGGGLVQPGRSLRLSCAASGFTFDDCAMHWVRQAPGKGLEWVSGISGNSKNVAYADSVKGRFSISRDDAKNSLYLQMNSLRAEDTAVYYCARDPAYSQFDYWGQGTLITVSS
VL: QSALTQPPSLSATPGQRVTISCSGSSSNVGGYPVNWYQQVPGAAPKLLMYTDYKRPSGVPDRFFGSKSGTSASLAISGLQSEDEADYYCATWDDNLNGYVFGTGTKVTVLG
Q: With B12 as the molecule, how does the koff [5] read?
A: 6.14e-05 s⁻¹

B13: No. 41 monoclonal scFv phage (scFv)
chain: QVQLVESGGGLVQPGGSLRLSCEASGFAFGRYEMNWVRQAPGKGLEWIAYIDTGGGAKVYADSVKGRFTISRDDSKNSLYLQMNSLRAEDTAVYYCTTEGLMNGLHFDMWGQGTMITVSSDIQMTQSPSTLSASVGDRVAITCRASQAISTWLAWYQQKPGKAPKLLIYTASTLESGVPSRFSGSGSGTDFTLTINSLQPDDFATYYCQQLNSYPYTFGGGTKVEIKR
Q: Which OD (mAng1-Fc (PharmAbcine)) does the source give for B13 here?
A: 0.111 OD
